Molecular target: Death Receptor 5 (human) (UniProt O14763)
Assay: cell-based or functional assay

Sequence of UniProt O14763 (O14763 other isoform, or with tags, fused parts or gaps limits assumed): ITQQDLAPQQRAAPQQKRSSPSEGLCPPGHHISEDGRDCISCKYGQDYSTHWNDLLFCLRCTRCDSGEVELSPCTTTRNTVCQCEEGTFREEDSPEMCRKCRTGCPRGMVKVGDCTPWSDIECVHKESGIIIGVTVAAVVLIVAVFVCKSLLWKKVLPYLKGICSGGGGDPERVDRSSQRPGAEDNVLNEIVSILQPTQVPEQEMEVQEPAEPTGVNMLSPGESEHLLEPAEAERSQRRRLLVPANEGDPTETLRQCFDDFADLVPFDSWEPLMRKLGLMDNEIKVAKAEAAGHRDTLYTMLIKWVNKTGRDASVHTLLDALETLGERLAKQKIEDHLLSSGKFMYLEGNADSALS

Substance | rate of DR5 endocytosis | receptor internalizing over 2 hr (fraction of the receptor)
Flag-tagged human recombinant soluble Apo2L/TRAIL cross-linked by anti-FLAG M2 antibody (from UniProt P50591 114-281) (ligand) | 2 fold | 0.33
human recombinant soluble Apo2L/TRAIL, non-tagged (trimeric) (from UniProt P50591 114-281) (ligand) | 2 fold | 0.33

From patent publication US20110244473A1
